# Test results: the RNAGym collection of RNA variant scans (doi:10.7554/elife.80360)
# B1: HDV Ribozyme (parent)
# chain: GGCCGGCAUGGUCCCAGCCUCCUCGCUGGCGCCGGCUGGGCAACAUUCCGAGGGGACCGUCCCCUCGGUAAUGGCGAAUGGGACCCA
# B2: CPEB3 Ribozyme (parent)
# chain: GGGGGCCACAGCAGAAGCGUUCACGUCGCGGCCCCUGUCAGAUUCUGGUGAAUCUGCGAAUUCUGCUGU
# Variants of: B1
# Assay: self-cleavage, relative activity (ratio to wild type); higher = more cleavage; co-transcriptional
row,Variant,self-cleavage
1,GGCCGGCAGGGUCCCAGCCUCCUCGCCGGCGCCGGCUGGGCAACAUUCCGAGGGGACCGUCCCCUCGGUAAUGGCGAAUGGGACCCA,0.68
2,GGCCGGCAUGGUCCCAGCCUACUCGCUGGCGCCGGCUGGGCAACAUUCCGAGGGGACCGUCCCCUCGGUAAUCGCGAAUGGGACCCA,0.0678
3,GGCCGGCAUGGUCCCAGCCUCCUCGCUGGCGCCGGCUGGGGAACAUUCCGAGGGGACCGUCCCCUCGGUAAUGGCGAAUGGGAGCCA,0.665
4,AGCCGGCAUGGUCCCAGCCUCCUCGCUGGCGCCGGCUGGGCAACCUUCCGAGGGGACCGUCCCCUCGGUAAUGGCGAAUGGGACCCA,0.268
5,GGCCAGCAUGGUCCCAGCCUCCUCGCUGGCGCCGGCUGGGCAACAUUCCGAGGGGACCGUCCCCUCGGUAAUGGGGAAUGGGACCCA,0
6,GGCCGGCAUGGUCCCAGCCUCCUCGCUGGCGCCGGCUGGGCAAAAUUCCGAGGGGACCGUCCCCUCGGUAAUCGCGAAUGGGACCCA,0.696
7,GGCCGGCAUGGUCCCAGCCUCCUCGCUGGCGCCGGCUGGGCAACAUACCGAGGGGACAGUCCCCUCGGUAAUGGCGAAUGGGACCCA,0.957
8,GGCCGGCAUGGUCCCAGCCUCCUCGCUGGCACCGGCUGGGCAACAUUACGAGGGGACCGUCCCCUCGGUAAUGGCGAAUGGGACCCA,0.616
9,GGCGGGCAUGGUCCCAGCCUACUCGCUGGCGCCGGCUGGGCAACAUUCCGAGGGGACCGUCCCCUCGGUAAUGGCGAAUGGGACCCA,0.0292
10,GGCCGGCAUGGACCCAGCCUCCUCGCUGGCGCCGGCUGGGCAACAUUCCGAGGGGACCGUCCCCUCGGUACUGGCGAAUGGGACCCA,0.262
11,GGCCGGCAUGGUCCCAGCCUACUCGCUGGCGCCGGCUGGGCAACAUUCCGAGGGGACCGGCCCCUCGGUAAUGGCGAAUGGGACCCA,0.138
12,GGCCGGCAUGGUCCCAGCCUCCUCGCUGGCGCCGGCUGGGCAACAUUCCGAGGGGACCGUGCCCUCGGUAAUGGCGAACGGGACCCA,0.499
13,GGCCGGCAUGGUCCCAGCCUCCUCGCUGGCGCCGGCUGGGCAGCAUUCCGAGGGGACCGUCCCCUCGGUAAUGGCGAAUGAGACCCA,0.0941
14,GGCCGGGAUGGUCCCAGCCUCCUCGCUGGCGCCGGCUGGGCAACAUUCCGAGCGGACCGUCCCCUCGGUAAUGGCGAAUGGGACCCA,0
15,GGCCGGCAUCGUCCCAGCCUCCUCGCUGGCGCCGGCUGGGCAACAUUCCGAGGGGACCGUCCCCUCGGUAAUGGCGAAUGGCACCCA,0.0875
16,GACCGGCAUGGUCCCAGCCUCCUCGCUGGCGCCGGCUGGGCAACAUUCCGAGGGGACCGUCCCCUCGGUAAUGGGGAAUGGGACCCA,0.0615
17,GGCCGGCAUGGUCCCAGCCUCCUCGCUGGCGCCGGCUGAGCAACAUUCCGAGGGGACCGUCCCCUCGGUAAUGGCUAAUGGGACCCA,0.873
18,GGCCGGCAUGGUCCCAGCCUCCUCGCUGGCGUCGGCUGGGCAACAUUCCGAGGGGACCGUCCCCUCGGAAAUGGCGAAUGGGACCCA,1.13

row,Variant,self-cleavage
1,GGCCGGCAUGGGCCCAGCCUCCUCGCUGGCGCCGGCUGGGCAACAUUCCGAGGGGACCGUCCCCUCGGUAAUGGCGUAUGGGACCCA,0.443
2,GGCUUGCAUGGUCCCAGCCUCCUCGCUGGCGCCGGCUGGGCAACAUUCCGAGGGGACCGUCCCCUCGGUAAUGGCGAAUGGGACCCA,0.237
3,GGCCGGCAUGGUCCCCGCCUCCUCGCUGGCGCCGGCUGGGCAACAUUCCGAGGGGACCGUCCCCUCGGCAAUGGCGAAUGGGACCCA,0.739
4,GGACGGCAUGGUCCCAGCCUCCUCGCUGGCGCCGGCUGGGCAACAUUCCGAGGGGACCGUCCCCUCGGUAAUGGCGCAUGGGACCCA,0.171
5,GGCCCGCAUGGUCCCAGCCUCCUCGCUGGCGCCGGCUGGGCAACAUUCCGAGGGGACCGUCCCCUCGGUAAAGGCGAAUGGGACCCA,0.095
6,GGCCGGCAUGGUCCCAACCUCCUCGCUGGCGCCGGCUGGGCAACAUACCGAGGGGACCGUCCCCUCGGUAAUGGCGAAUGGGACCCA,0.554
7,GGCCCGCAUGGUCCCAGCCUCCUCGCUGGCGCCGGCUGGGCAACAUUCCGAGGGGACCGUCCCCUCGAUAAUGGCGAAUGGGACCCA,0.208
8,GCCCGGCAUGGUCCCAGCCUCCUCGCUGGCGCCGGCUGGGCAACAUUCCGAGGGGACCGUCCCUUCGGUAAUGGCGAAUGGGACCCA,0.0219
9,GGCCGGCAUGGUCCCAGCCUCCUCGCUGGCGCCGGCUGGGCAACAUUCCGAGGGGACCGUCCCCUGGGUUAUGGCGAAUGGGACCCA,1.08
10,GGCCGGCAUGGUCCCAGCCUCCUCGCUGGCGCCGGCUGGGCAACAUUCCGAGGGGACCGUCCCCUCGGUAAUGGCCAAUGGUACCCA,0.326
11,GGCCGGCAUGGUCCCAGCCUCCUCGCUGGCGCCGGCUGGGCAACAUUCCGAGGGGAGCGUCCCCUCGGUAAUGGCGAAUGGGAUCCA,0.721
12,GUCCGACAUGGUCCCAGCCUCCUCGCUGGCGCCGGCUGGGCAACAUUCCGAGGGGACCGUCCCCUCGGUAAUGGCGAAUGGGACCCA,0.0355
13,GGCCGGCAUGGUCCCAGCCUCCUCGCUGGCGCCGACUGGGCAACAUUCCGAGGGGACCGUCCCCUCGAUAAUGGCGAAUGGGACCCA,0.496
14,GGCCGGCAUGGUCCCAGCCUCCUCGCUGGCGCCGGCUGGGCAACAUUCCGAGGGGACUGUCCCCUCGCUAAUGGCGAAUGGGACCCA,0.95
15,GGCCGCCAUGGUCCCAGCCUCCUCGCUGGCGCCGGCUGGGCAAUAUUCCGAGGGGACCGUCCCCUCGGUAAUGGCGAAUGGGACCCA,0
16,GGCCGGCAUGGUCCCAGCGUCCUUGCUGGCGCCGGCUGGGCAACAUUCCGAGGGGACCGUCCCCUCGGUAAUGGCGAAUGGGACCCA,0.0339
17,GGCCGGCAUGGUCCCAGCCUCCUCGCUGGCGCCGGCUGGGCAACAUUCCGAGGGGAGCGUCCCCUCGGUAAUGGCGAAUAGGACCCA,0.208

# Variants of: B2
# Assay: as above
row,Variant,self-cleavage
1,AGGGGCCACAGUAGAAGCGUUCACGUCGCGGCCCCUGUCAGAUUCUGGUGAAUCUGCGAAUUCUGCUGU,0.0887
2,AGGGGCCACAGCAGACGCGUUCACGUCGCGGCCCCUGUCAGAUUCUGGUGAAUCUGCGAAUUCUGCUGU,0.028
3,AGGGGCCACAGCAGAUGCGUUCACGUCGCGGCCCCUGUCAGAUUCUGGUGAAUCUGCGAAUUCUGCUGU,0.0347
4,AGGGGCCACGGCAGAAGCGUUCACGUCGCGGCCCCUGUCAGAUUCUGGUGAAUCUGCGAAUUCUGCUGU,0.115
5,AGGGGCCACUGCAGAAGCGUUCACGUCGCGGCCCCUGUCAGAUUCUGGUGAAUCUGCGAAUUCUGCUGU,0.0492
6,AGGGGCCACAGCAGAAGCGUUCACGUCGCGGCCCCUGUCAGAUUCUGGUGAAUUUGCGAAUUCUGCUGU,0.0835
7,AAGGGCCACAGCAGAAGCGUUCACGUCGCGGCCCCUGUCAGAUUCUGGUGAAUCUGCGAAUUCUGCUGU,0.302
8,AUGGGCCACAGCAGAAGCGUUCACGUCGCGGCCCCUGUCAGAUUCUGGUGAAUCUGCGAAUUCUGCUGU,0.332
9,ACGGGCCACAGCAGAAGCGUUCACGUCGCGGCCCCUGUCAGAUUCUGGUGAAUCUGCGAAUUCUGCUGU,0.265
10,AGGGGCCCCAGCAGAAGCGUUCACGUCGCGGCCCCUGUCAGAUUCUGGUGAAUCUGCGAAUUCUGCUGU,0.102
11,AGGGGCCGCAGCAGAAGCGUUCACGUCGCGGCCCCUGUCAGAUUCUGGUGAAUCUGCGAAUUCUGCUGU,0.0246
12,AGGGGCCACAGCAGAAGCGUUCACGUCGCGGCCCCUGUAAGAUUCUGGUGAAUCUGCGAAUUCUGCUGU,0.0683
13,AGGGGCCACAGCAGAAGCGUUCACGUCGCGGCCCCUGUGAGAUUCUGGUGAAUCUGCGAAUUCUGCUGU,0.0386
14,AGGGGCCACAGCAGAAGCGUUCACGUCGCGGCCCCUGUCAGAUUAUGGUGAAUCUGCGAAUUCUGCUGU,0.0944
15,AGGGGCCACAGCAGAAGCGUUCACGUCGCGGCCCCUGUCAGCUUCUGGUGAAUCUGCGAAUUCUGCUGU,0.106
16,AGGGGCCACAGCAGAAGCGUUCACGUCGCGGCCCCUGUCAGUUUCUGGUGAAUCUGCGAAUUCUGCUGU,0.105
17,AGGGGCCACAGCAGAAGCGUUAACGUCGCGGCCCCUGUCAGAUUCUGGUGAAUCUGCGAAUUCUGCUGU,0.0619
18,AGGGGCCACAGCAGAAGCGUUGACGUCGCGGCCCCUGUCAGAUUCUGGUGAAUCUGCGAAUUCUGCUGU,0.0704

row,Variant,self-cleavage
1,AGGGGCCACAGCAGAAGCGUUCACGUGGCGGCCCCUGUCAGAUUCUGGUGAAUCUGCGAAUUCUGCUGU,0.0668
2,AGGGGCUACAGCAGAAGCGUUCACGUCGCGGCCCCUGUCAGAUUCUGGUGAAUCUGCGAAUUCUGCUGU,0.0863
3,AGGGGCAACAGCAGAAGCGUUCACGUCGCGGCCCCUGUCAGAUUCUGGUGAAUCUGCGAAUUCUGCUGU,0.155
4,AGGGGCCACAGCAGAAGCGUUCACGUCGCGGCCCCUGUCAGAUUCUGGUGAAUCUGCGAAUUCUGUUGU,0.0966
5,AGGGGCCACAGCAGAAGCGUUCACGUCGCGGCCCCUGUCAGAUUCUGGUGAAUCUGCGAAUUCUGAUGU,0.0751
6,AGAGGCCACAGCAGAAGCGUUCACGUCGCGGCCCCUGUCAGAUUCUGGUGAAUCUGCGAAUUCUGCUGU,0.107
7,AGUGGCCACAGCAGAAGCGUUCACGUCGCGGCCCCUGUCAGAUUCUGGUGAAUCUGCGAAUUCUGCUGU,0.0455
8,AGGGGCCACAGCAGAAGCGUUCACGUCGAGGCCCCUGUCAGAUUCUGGUGAAUCUGCGAAUUCUGCUGU,0.061
9,AGGGGCCACAGCAGAAGCGUUCACGUCGCGGCCCCUGUCGGAUUCUGGUGAAUCUGCGAAUUCUGCUGU,0.0657
10,AGGGGCCACAGCAGAAGCGUUCACGUCGCGGCACCUGUCAGAUUCUGGUGAAUCUGCGAAUUCUGCUGU,0.0757
11,AGGGGCCACAGCAGAAGCGUUCACGUCGCGGCCCCUGUCAGAUUCUGGUGAAUCUGCGAGUUCUGCUGU,0.0623
12,AGGGGCCACAGCAGAAGCGUUCACGUCGCGGCCCCUGUCAGAUUCUGGUGAAUCUGCGAUUUCUGCUGU,0.107
13,AGGGGCCACAGCAGAAGCGUUCACGUCGCGGCCCCUGUCAGAUUCUGGUGCAUCUGCGAAUUCUGCUGU,0.114
14,AGGGGCCACAGCAGAAGCGUUCACGUCGCGGCCCCUGUCAGAUUCUGGUGGAUCUGCGAAUUCUGCUGU,0.0779
15,AGGGGCCACAGCAGAAGCGUUCACGUCGCGGCCCGUGUCAGAUUCUGGUGAAUCUGCGAAUUCUGCUGU,0.053
16,AGGGGCCACAGCAGAAGCGUUCCCGUCGCGGCCCCUGUCAGAUUCUGGUGAAUCUGCGAAUUCUGCUGU,0.0884
17,AGGGGCCACAGCAGAAGCGUUCGCGUCGCGGCCCCUGUCAGAUUCUGGUGAAUCUGCGAAUUCUGCUGU,0.139
